Literature values, collected in patent publication US20120245117A1, “METHODS OF TREATING SQUAMOUS CELL LUNG CANCER WITH 4-IODO-3-NITROBENZAMIDE IN COMBINATION WITH GEMCITABINE AND CARBOPLATIN” (priority 2011, published 2012).

System: SqCLC
Conditions: SqCLC patients; combination with carboplatin/paclitaxel; cited from earlier work

B1: CP-751,871: an anti-IGF-1R monoclonal antibody (antibody, chains of the INN, looked up)
heavy: EVQLLESGGGLVQPGGSLRLSCTASGFTFSSYAMNWVRQAPGKGLEWVSAISGSGGTTFYADSVKGRFTISRDNSRTTLYLQMNSLRAEDTAVYYCAKDLGWSDSYYYYYGMDVWGQGTTVTVSSASTKGPSVFPLAPCSRSTSESTAALGCLVKDYFPEPVTVSWNSGALTSGVHTFPAVLQSSGLYSLSSVVTVPSSNFGTQTYTCNVDHKPSNTKVDKTVERKCCVECPPCPAPPVAGPSVFLFPPKPKDTLMISRTPEVTCVVVDVSHEDPEVQFNWYVDGVEVHNAKTKPREEQFNSTFRVVSVLTVVHQDWLNGKEYKCKVSNKGLPAPIEKTISKTKGQPREPQVYTLPPSREEMTKNQVSLTCLVKGFYPSDIAVEWESNGQPENNYKTTPPMLDSDGSFFLYSKLTVDKSRWQQGNVFSCSVMHEALHNHYTQKSLSLSPG
light: DIQMTQFPSSLSASVGDRVTITCRASQGIRNDLGWYQQKPGKAPKRLIYAASRLHRGVPSRFSGSGSGTEFTLTISSLQPEDFATYYCLQHNSYPCSFGQGTKLEIKRTVAAPSVFIFPPSDEQLKSGTASVVCLLNNFYPREAKVQWKVDNALQSGNSQESVTEQDSKDSTYSLSSTLTLSKADYEKHKVYACEVTHQGLSSPVTKSFNRGEC
response rate: ~78%
toxicity: strong toxicity
